Laboratory results reported in patent US20220332804A1 (CSL INNOVATION, published 2022).
Changes are numbered by the printed parent chain.

Legend:
Assay in all cases: SPR, antibody captured, C2 as analyte;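 further: biacore SPR at 37 °C, anti-C2 mAbs captured via goat anti-human IgG on CM5 chips, double-referenced sensorgrams fit to a 1:1 kinetic or steady-state model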
human C2 T491A = biological target: T1, human C2 T491A (human, UniProt P06681 21-752)
T1 sequence: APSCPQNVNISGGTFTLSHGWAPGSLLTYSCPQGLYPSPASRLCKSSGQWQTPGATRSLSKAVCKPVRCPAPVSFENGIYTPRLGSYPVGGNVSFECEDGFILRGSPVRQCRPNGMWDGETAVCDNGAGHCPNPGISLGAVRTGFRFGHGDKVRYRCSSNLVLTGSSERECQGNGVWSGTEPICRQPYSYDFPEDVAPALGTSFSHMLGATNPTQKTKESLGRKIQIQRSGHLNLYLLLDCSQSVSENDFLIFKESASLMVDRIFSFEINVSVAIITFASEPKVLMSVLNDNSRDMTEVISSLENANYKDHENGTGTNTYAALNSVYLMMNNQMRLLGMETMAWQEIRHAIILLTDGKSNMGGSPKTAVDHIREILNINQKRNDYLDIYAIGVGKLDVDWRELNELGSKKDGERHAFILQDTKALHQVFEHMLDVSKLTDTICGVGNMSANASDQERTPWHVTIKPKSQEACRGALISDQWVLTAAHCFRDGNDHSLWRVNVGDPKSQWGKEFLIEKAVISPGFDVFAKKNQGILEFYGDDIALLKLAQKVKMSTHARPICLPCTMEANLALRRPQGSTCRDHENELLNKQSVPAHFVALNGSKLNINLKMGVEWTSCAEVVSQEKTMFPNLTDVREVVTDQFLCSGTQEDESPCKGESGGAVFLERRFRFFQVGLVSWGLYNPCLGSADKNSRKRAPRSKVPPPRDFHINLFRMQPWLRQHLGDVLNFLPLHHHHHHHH

human C2 K715A = biological target: T2, human C2 K715A (human, UniProt P06681 21-752)
T2 sequence: T1 sequence with A471T, K695A

human C2 E645A = biological target: T3, human C2 E645A (human, UniProt P06681 21-752)
T3 sequence: T1 sequence with A471T, E625A

human C2 E433A = biological target: T4, human C2 E433A (human, UniProt P06681 21-752)
T4 sequence: T1 sequence with E413A, A471T

B1: RF16-226 (antibody, human IgG4 S228P, lambda)
heavy: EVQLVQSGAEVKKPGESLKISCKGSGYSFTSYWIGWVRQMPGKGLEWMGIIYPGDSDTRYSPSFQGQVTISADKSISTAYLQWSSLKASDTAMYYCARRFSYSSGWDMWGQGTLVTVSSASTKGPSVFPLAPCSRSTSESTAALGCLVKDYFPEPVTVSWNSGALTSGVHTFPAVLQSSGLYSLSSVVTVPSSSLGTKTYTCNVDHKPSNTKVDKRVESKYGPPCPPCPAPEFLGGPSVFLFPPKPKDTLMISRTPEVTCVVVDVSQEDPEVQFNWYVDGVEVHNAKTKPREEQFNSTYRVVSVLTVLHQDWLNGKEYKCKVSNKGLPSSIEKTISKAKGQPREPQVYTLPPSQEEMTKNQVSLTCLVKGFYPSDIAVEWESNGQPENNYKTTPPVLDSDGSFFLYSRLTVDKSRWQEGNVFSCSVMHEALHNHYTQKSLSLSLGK
light: SYELTQPPSVSVSPGQTARITCSGDALTSKYVAWYQQKSGLAPLLVIYEDTRRPSGIPAKFSGSSSGSVATLTISGAHGDDEADYYCYSTDASGHQRVFGGGTKLTVLSQPKAAPSVTLFPPSSEELQANKATLVCLISDFYPGAVTVAWKADGSPVKAGVETTKPSKQSNNKYAASSYLSLTPEQWKSHRSYSCQVTHEGSTVEKTVAPTECS
notes: pH-dependent anti-C2 antibody from a phage display library; also called WT
Kd (human C2 T491A): 15.5 nM | Kd (human C2 K715A): 16.2 nM | Kd (human C2 E645A): 14 nM | Kd (human C2 E433A): 2.6 nM
